Results taken from patent US20180021429A1, “ANTICANCER AGENTS OR ANTIMETASTATIC AGENTS USING FSTL1 AND COMBINATION DRUG THEREOF” (PHARMA FOODS INTERNATIONAL CO., LTD., priority 2015, published 2018).
Residue numbers refer to the chain shown, from its start. “Also recorded” adds a separate entry of the source.

T1: FSTL1 (Homo sapiens, UniProt Q12841)
T1 sequence (Q12841 21-308): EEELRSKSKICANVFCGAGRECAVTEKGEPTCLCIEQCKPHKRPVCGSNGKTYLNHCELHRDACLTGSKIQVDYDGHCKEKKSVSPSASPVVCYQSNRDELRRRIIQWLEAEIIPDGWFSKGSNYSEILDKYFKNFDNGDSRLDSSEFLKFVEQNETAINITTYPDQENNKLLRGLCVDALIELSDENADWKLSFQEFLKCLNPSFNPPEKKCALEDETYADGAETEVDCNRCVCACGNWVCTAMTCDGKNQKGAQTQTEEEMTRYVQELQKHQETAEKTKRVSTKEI

B1: #5-8: chicken-mouse chimeric anti-FSTL1 antibody clone; variable regions SEQ ID NO: 771 (light), 773 (heavy) (antibody, V domains shown)
VH: AVTLDESGGGLQTPGGGLSLVCKGSGFTFSSFNMFWVRQAPGKGLEWVAGIGKDGVPKYGTAVDGRATISKDNGQSTMRLQLNNLRAEDTGTYFCAKAAGGCSYDWCGIYTGDIDTWGHGTEVIVSS
VL: ASTQPSSVSANPGEAVKITCSGGSGSYYGWYQQKSPGSAPVTVIYNNNQRPSDIPSRFSGSKSGSTATLTITGVQAEDEAVYFCGGYDSSTGHGGIFGAGTTLTVL
modifications: mouse constant regions
B2: #8-7: chicken-mouse chimeric anti-FSTL1 antibody clone; variable regions SEQ ID NO: 799 (light), 801 (heavy) (antibody, V domains shown)
VH: B1 VH with T61A, M78L, T111A
VL: B1 VL
modifications: mouse constant regions
B3: #5-2: chicken-mouse chimeric anti-FSTL1 antibody clone; variable regions SEQ ID NO: 763 (light), 765 (heavy) (antibody, V domains shown)
VH: AVTLDESGGGLQTPGGGLSLVCKGSGFTFSSFNMFWVRQAPGKGLEWVAGVGKDGGTGYGAAVDGRATISKDNGQSTLRLQLNNLRAEDTGTYYCAKAAGGCSYGWCGSYVGDIDAWGHGTEVIVSS
VL: B1 VL
modifications: mouse constant regions
B4: #8-4: chicken-mouse chimeric anti-FSTL1 antibody clone; variable regions SEQ ID NO: 795 (light), 797 (heavy) (antibody, V domains shown)
VH: B3 VH with F29L, G58A, K71R, N73S, L78V, Y94F, G105S, S109A, I114L
VL: ASSQPSSVSANPGETVKITCSGGSGYYYGWYQQKSPGSAPVTVIYNNDNKPSDIPSRFSGSKSGSTGTLTITGVQVEDEAVYFCGGYDNSGTGIFGAGTTLTVL
modifications: mouse constant regions

Assays:
[1] = test system: human pancreatic cancer cell line Panc1; assay: Inhibitory activity against activation of tumor cell by FSTL1, RANKL-/CCR2-positive cells (Examples 5, 7, 9-11); assay type: cell-based; details: antibody 10 μg/mL, 3 days
Procedure: It is known that tumor cells activated by stimulation with FSTL1 highly express molecule groups promoting bone metastasis and increase metastatic invasive capacity (Cancer Research 73: 6185, 2013). Thus, […] cells/well of a human pancreatic cancer cell line Panc1 were suspended in 1 mL/well of D-MEM medium (GIBCO/Thermo Fisher Scientific Inc. Cat. No. C11885500BT) containing 10% fetal bovine serum, supplemented with 50 ng/mL (final concentration) of FSTL1 (R&D Systems, Inc.) and 10 μg/mL of the anti-FSTL1 antibody (#5-2, #5-8, #5-10, #5-43, #6-55, or #7-34) or its isotype mouse IgG (anti-DNP antibody) as a control antibody “Control”, and cultured under stimulation (6-well plate). 3 days thereafter, the number of cells was counted while the cells were stained with a PE-labeled anti-RANKL antibody (eBioscience Cat. No. 12-6619) and a PE-labeled anti-CCR2 antibody (R&D Systems, Inc. Cat. No. FAB151P) in order to examine the expression of markers indicating bone metastatic properties, and the contents of RANKL-positive cells and CCR2-positive cells were analyzed by flow cytometry using FACScan (Becton, Dickinson and Company) to calculate the numbers of cells per culture. […] Therefore, in Examples below, judgment was made with the number of cells as an index.
In the same way as in Example 5, a human pancreatic cancer cell line Panc1 was supplemented with 50 ng/mL (final concentration) of FSTL1 (R&D Systems, Inc.) and 10 μg/mL of the anti-FSTL1 antibody (the same clones as in Example 6) or a control antibody and cultured under stimulation.
3 days thereafter, the number of cells was counted while the cells were stained with a PE-labeled anti-RANKL antibody and a PE-labeled anti-CCR2 antibody, and the contents of RANKL-positive cells and CCR2-positive cells were analyzed by flow cytometry using FACScan (Becton, Dickinson and Company) to calculate the numbers of cells per culture (FIG. 5B).
(§1) In the same way as in Example 5, a human pancreatic cancer cell line Panc1 was supplemented with 20 ng/mL (final concentration) of FSTL1 and 10 μg/mL of the anti-FSTL1 antibody (#5-2, #5-8, or #6-55) or a control antibody and cultured under stimulation. 3 days thereafter, the number of cells was counted while the cells were stained with a PE-labeled anti-RANKL antibody and a PE-labeled anti-CCR2 antibody, and the contents of RANKL-positive cells and CCR2-positive cells were analyzed by flow cytometry using FACScan (Becton, Dickinson and Company) to calculate the numbers of cells per culture (FIG. 6B).
as §1, with “50” for “20”, “#5-3, #6-55, #7-34, #8-1, #8-4, #8-7,” for “#5-8,”, “#8-8)” for “#6-55)”, “culture.” for “culture (FIG. 6B).”
as §1, with “50” for “20”, “(#6-55)” for “(#5-2, #5-8, or #6-55)”, “culture.” for “culture (FIG. 6B).”
It is known that tumor cells activated by stimulation with FSTL1 highly express molecule groups promoting bone metastasis and increase metastatic invasive capacity (Cancer Research 73: 6185, 2013). […]

FSTL1 = molecular target: T1, FSTL1; assay: Inhibition of MSC induction by FSTL1 in mouse bone marrow cells, CD45-negative cells (Examples 6, 8, 12); assay type: cell-based; set-up: purchased R&D Systems, Inc. 1694-FN-050; details: antibody 10 μg/mL
Procedure: Mouse bone marrow cells prepared in the same way as in Example 4 were supplemented with 50 ng/mL (final concentration) of FSTL1 and 10 μg/mL of the anti-FSTL1 antibody (#5-2, #5-3, #5-8, #5-10, 45-43, #6-55, or #7-34) or a control antibody anti-DNP antibody and cultured under stimulation. 11 days thereafter, the number of cells was counted while the cells were stained with a PE-Cy5-labeled anti-CD45 antibody (BD Pharmingen/Becton, Dickinson and Company, Cat. No. 555484), and the content of CD45− negative cells reported to generally contain MSCs at a high rate was analyzed by flow cytometry using FACScan to calculate the percentage and number of MSCs per culture (FIG. 67A).
(§2) Mouse bone marrow cells prepared in the same way as in Example 4 were supplemented with 20 ng/mL (final concentration) of FSTL1 and 10 μg/mL of the anti-FSTL1 antibody (#5-2, #5-3, #5-8, #5-10, #5-43, #6-55, #8-1, #8-4, #8-7, and #8-8) or a control antibody anti-DNP antibody and cultured under stimulation. 8 days thereafter, the number of cells was counted while the cells were stained with a PE-Cy5-labeled anti-CD45 antibody, and the content of CD45− negative cells was analyzed by flow cytometry using FACScan to calculate the percentage and number of MSCs per culture (FIG. 68A).
as §2, with “(#5-2,” for “(#5-2, #5-3,”, “#5-8,” for “#5-8, #5-10, #5-43,”, “#6-55, #7-34,” for “#6-55,”, “#8-7, or” for “#8-7, and”, “(FIG. 69).” for “(FIG. 68A).”

[2] = Example 8, FSTL1 20 ng/mL, 8 days
[3] = Example 10, FIG. 6C/36C, FSTL1 50 ng/mL
[4] = Example 12, FSTL1 20 ng/mL, 8 days

Row | Molecule | inhibitory activity against the expansion of RANKL-positive cells and CCR2-positive cells ([1]; Example 7, FIG. 5B/35B, FSTL1 50 ng/mL) | inhibitory activity against the expansion of RANKL-positive cells and CCR2-positive cells ([1]; Example 9, FIG. 6B/36B, FSTL1 20 ng/mL) | inhibitory activity against the expansion of CD45-negative cells by FSTL1 (FSTL1; Example 6, FSTL1 50 ng/mL, 11 days) | inhibitory activity against the expansion of CD45-negative cells by FSTL1 (FSTL1; [2]) | inhibitory activity against the expansion of RANKL-positive cells and CCR2-positive cells [1, 3] | inhibitory activity against the expansion of CD45-negative cells by FSTL1 (FSTL1; [4])
1 | B1 | higher inhibitory activity | exhibited inhibitory activity against the expansion of RANKL-positive cells and CCR2-positive cells; also recorded: higher inhibitory activity | higher inhibitory activity and substantially completely inhibited the action of FSTL1 | Inhibitory activity was confirmed; also recorded: exhibited inhibitory activity |  | 
2 | B2 |  |  |  |  | high inhibitory activity; also recorded: higher inhibitory activity | stronger inhibitory activity was confirmed in the order of clone #7-34, #5-2, 46-55, and #8-7; also recorded: higher inhibitory activity was confirmed in the order of #7-34, #5-2, #6-55, and #8-7; also recorded: stronger inhibitory activity was confirmed in the order of clone #7-34, #5-2, 96-55, and #8-7
3 | B3 |  |  |  |  | high inhibitory activity; also recorded: higher inhibitory activity | stronger inhibitory activity was confirmed in the order of clone #7-34, #5-2, 46-55, and #8-7; also recorded: higher inhibitory activity was confirmed in the order of #7-34, #5-2, #6-55, and #8-7; also recorded: stronger inhibitory activity was confirmed in the order of clone #7-34, #5-2, 96-55, and #8-7
4 | B4 |  |  |  | exhibited inhibitory activity | high inhibitory activity; also recorded: higher inhibitory activity | 
